± gives the standard deviation of the averaged measurements.
Tests used:
Saccharomyces cerevisiae [1] = test: protein stability index of tFT-peptide fusion in wild type (PSI (0-1 scale)); higher = more stable (slower turnover); conditions: genetic background: wild type
Experimental: (§1)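 MPS profiling in S. cerevisiae of two library types built from selected 12-aa C-degron peptides (IN1, IN2, LN1, LN3, VN2, R1-R5, W1-W3, Atg1 and Rpa12 C-termini): saturation mutagenesis libraries and C-terminal +1 capping libraries (13 aa). Each peptide is fused to the C-terminus of a sfGFP-mCherry timer, after a GGGS linker. Cells are FACS-sorted into 8 mCherry/sfGFP bins and sequenced. PSI runs from 0 (unstable) to 1 (stable), measured once in wild type and in the das1Δ or doa10Δ background.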

Saccharomyces cerevisiae [2] = test: protein stability index of tFT-peptide fusion in deletion strain of DOA10 (PSI (0-1 scale)); higher = more stable (slower turnover)
Experimental: as §1

Saccharomyces cerevisiae [3] = test: protein stability index of tFT-peptide fusion in deletion strain of DAS1 (PSI (0-1 scale)); higher = more stable (slower turnover)
Experimental: as §1

Saccharomyces cerevisiae [4] = test: protein stability index of tFT-peptide fusion (C-terminal peptide) (PSI (0-1 scale)); higher = more stable (slower turnover)
Experimental: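 MPS profiling in S. cerevisiae of the tFT-X12 degron library: putative degron peptides plus stable controls, 12 aa, fused to the C-terminus of a sfGFP-mCherry timer. Cells are FACS-sorted into 8 mCherry/sfGFP bins and deep-sequenced. PSI runs from 0 (unstable) to 1 (stable). Backgrounds are wild type, das1Δ and doa10Δ at 30 °C, and wild type, das1Δ, cdc34-1 and cdc53-1 at 37 °C; 2-3 technical replicates each.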
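Throughout, for protein stability index of tFT-peptide fusion (C-terminal peptide): PSI is a weighted mean of sequencing reads over stability bins, variants kept only with over 10 reads, mCherry proximal and sfGFP distal, peptide attached via GGGS linker.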
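Throughout, for protein stability index of tFT-peptide fusion in deletion strain of DAS1: PSI is a weighted mean of each variant's read distribution over the sorted stability bins, computed only for variants having over 10 reads in total.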
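Throughout, for protein stability index of tFT-peptide fusion in deletion strain of DOA10: PSI per variant is the weighted mean of its sequencing read distribution over the sorted stability bins, counting only variants with over 10 reads summed across bins.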
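Throughout, for protein stability index of tFT-peptide fusion in wild type: PSI derived as read-weighted mean over the 8 sorting bins, only variants exceeding 10 total reads kept, mCherry placed adjacent to the peptide and sfGFP distal.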

Sequence | protein stability index (Saccharomyces cerevisiae [1]) | protein stability index (Saccharomyces cerevisiae [3]) | further results
RVTDLDAIYFRI | 0.636 | – | protein stability index (Saccharomyces cerevisiae [2]): 0.678
RSLRVLRPLYFR | 0.257 | – | protein stability index (Saccharomyces cerevisiae [2]): 0.684
RDTRLDAIYFRI | 0.563 | – | protein stability index (Saccharomyces cerevisiae [2]): 0.644
PLVSLPILLFFR | 0.138 | – | protein stability index (Saccharomyces cerevisiae [2]): 0.661
RVTRSDAIYFRI | 0.525 | – | protein stability index (Saccharomyces cerevisiae [2]): 0.695
RVTRLDAVYFRI | 0.442 | – | protein stability index (Saccharomyces cerevisiae [2]): 0.68
LLVSLPILLFFR | 0.0951 | – | protein stability index (Saccharomyces cerevisiae [2]): 0.561
RSLRVLLPLYFT | 0.265 | – | protein stability index (Saccharomyces cerevisiae [2]): 0.478
RSLRMLLPLYFR | 0.376 | – | protein stability index (Saccharomyces cerevisiae [2]): 0.615
RSLRVLLPSYFR | 0.65 | – | protein stability index (Saccharomyces cerevisiae [2]): 0.668
ARWGVGLWRGAS | 0.372 | 0.685 | protein stability index (Saccharomyces cerevisiae [4]; genetic background: cdc34-1, temperature: 37 C): 0.664 ± 0.02; protein stability index (Saccharomyces cerevisiae [4]; genetic background: cdc53-1, temperature: 37 C): 0.756 ± 0.0077; protein stability index (Saccharomyces cerevisiae [4]; genetic background: das1 deletion, temperature: 30 C): 0.6508 ± 0.0062; protein stability index (Saccharomyces cerevisiae [4]; genetic background: das1 deletion, temperature: 37 C): 0.76494 ± 7.7e-05; protein stability index (Saccharomyces cerevisiae [4]; genetic background: doa10 deletion, temperature: 30 C): 0.282 ± 0.018; protein stability index (Saccharomyces cerevisiae [4]; genetic background: wild type, temperature: 30 C): 0.299 ± 0.029; protein stability index (Saccharomyces cerevisiae [4]; genetic background: wild type, temperature: 37 C): 0.618 ± 0.012
PSLAASFWRVWG | 0.38 | 0.696 | –
VRGAVGGWRLVGE | 0.612 | 0.66 | –
KKHKKGFKQKIN | 0.0758 | 0.589 | –
PSAAASFWRVVG | 0.174 | 0.678 | –
CTSCGYKFRMNN | 0.412 | 0.686 | –
FSYRWTFRYWVN | 0.0328 | 0.53 | –
CTSCGYKMRTNN | 0.227 | 0.669 | –
LVRYLSCVACIN | 0.0691 | 0.316 | –
LVVILSCVACIN | 0.0224 | 0.0419 | –
LKILRQKMNHQNH | 0.655 | 0.69 | –
LVVYLSCVACINS | 0.029 | 0.0599 | –

Sequence | protein stability index (Saccharomyces cerevisiae [1]) | protein stability index (Saccharomyces cerevisiae [3]) | further results
TRWRVGLWRGAS | 0.394 | 0.602 | –
VRGAVIGWRLVG | 0.146 | 0.68 | –
FSMRWDFRYWVN | 0.0502 | 0.585 | –
LVVYLECVACIN | 0.0187 | 0.0239 | –
PSLNASFWRVVG | 0.159 | 0.699 | –
KKHKDGQKQKIN | 0.0686 | 0.602 | –
VRGAVGGKRLVG | 0.649 | 0.677 | –
RLIQPLPVLFLN | 0.0545 | 0.542 | –
FSMRWTFRYWVNY | 0.114 | 0.471 | –
CTSCGYNFRTNN | 0.642 | 0.704 | –
LKIERQKMNHQN | 0.333 | 0.682 | –
YKHKKGQKQKIN | 0.176 | 0.607 | –
LKILRQEMNHQN | 0.437 | 0.672 | –
ARWRVGLFRGAS | 0.655 | 0.665 | –
CTSCGYKFRTNQ | 0.498 | 0.691 | –
RWIQPLPVQFLN | 0.0536 | 0.686 | –
PDKRNHLILLLN | 0.114 | 0.635 | –
LKILRQKSNHQN | 0.581 | 0.688 | –
VRGAVGGARLVG | 0.618 | 0.673 | –
SSMRWTFRYWVN | 0.113 | 0.608 | –
PELAASFWRVVG | 0.2 | 0.694 | –
ARWRVMLWRGAS | 0.305 | 0.705 | –

Sequence | protein stability index (Saccharomyces cerevisiae [1]) | protein stability index (Saccharomyces cerevisiae [3]) | further results
CTSTGYKFRTNN | 0.214 | 0.681 | –
FSMRWTFRYWEN | 0.5 | 0.54 | –
RLIQPLTVQFLN | 0.065 | 0.608 | –
PDKRPHLIKLLN | 0.0997 | 0.678 | –
DRGAVGGWRLVG | 0.176 | 0.655 | –
ARWKVGLWRGAS | 0.32 | 0.673 | –
FSMRWTFRYRVN | 0.059 | 0.586 | –
LKILRQKMHHQN | 0.231 | 0.706 | –
ARWRVYLWRGAS | 0.378 | 0.618 | –
PDKRNHLIKLFN | 0.346 | 0.551 | –
CTSFGYKFRTNN | 0.127 | 0.678 | –
EKILRQKMNHQN | 0.137 | 0.681 | –
PSLAASSWRVVG | 0.167 | 0.694 | –
RLIQPLPVVFLN | 0.047 | 0.565 | –
KKHKKGQKQKINW | 0.643 | 0.657 | –
PDKRNHLIKLLR | 0.683 | 0.643 | –
RLIQPLPVQFLP | 0.62 | 0.57 | –
RPIQPLPVQFLN | 0.0515 | 0.593 | –
LGVYLSCVACIN | 0.0766 | 0.166 | –
PSLAWSFWRVVG | 0.0943 | 0.724 | –
KKRKKGQKQKIN | 0.111 | 0.571 | –
LVVYLSCPACIN | 0.469 | 0.513 | –

Sequence | protein stability index (Saccharomyces cerevisiae [1]) | protein stability index (Saccharomyces cerevisiae [3]) | further results
KKHKKGQKEKIN | 0.124 | 0.606 | –
PSLAASFWRSVG | 0.168 | 0.699 | –
CTSCGYKFRTNW | 0.695 | 0.705 | –
FSMRWGFRYWVN | 0.0673 | 0.646 | –
PSLAASFWRPVG | 0.656 | 0.677 | –
LVVYLSCMACIN | 0.0207 | 0.0753 | –
LVVYLSCVAHIN | 0.0148 | 0.0209 | –
LVVYISCVACIN | 0.0144 | 0.0366 | –
LKILRQKMNHNN | 0.239 | 0.688 | –
CTSCFYKFRTNN | 0.173 | 0.677 | –
DSMRWTFRYWVN | 0.0763 | 0.582 | –
FSMRWTFRYTVN | 0.0631 | 0.476 | –
KKHKKGQKQGIN | 0.703 | 0.606 | –
PSLAASFWRVVGH | 0.681 | 0.707 | –
RLIQKLPVQFLN | 0.0183 | 0.589 | –
VRGAVGGWALVG | 0.438 | 0.667 | –
CTSCGYKFDTNN | 0.667 | 0.705 | –
CTSKGYKFRTNN | 0.269 | 0.667 | –
LKILLQKMNHQN | 0.249 | 0.678 | –
PDKRNHLIKLLL | 0.332 | 0.615 | –
KKHKSGQKQKIN | 0.106 | 0.603 | –
NSLAASFWRVVG | 0.147 | 0.679 | –

Sequence | protein stability index (Saccharomyces cerevisiae [1]) | protein stability index (Saccharomyces cerevisiae [3]) | further results
ARWRVGLWRCAS | 0.114 | 0.674 | –
CTSCGKKFRTNN | 0.5 | 0.688 | –
CTPCGYKFRTNN | 0.248 | 0.686 | –
ARWRTGLWRGAS | 0.474 | 0.679 | –
PDKRNHLIKLWN | 0.314 | 0.627 | –
RLIQPLPVQFWN | 0.132 | 0.618 | –
ARWRVGLWRYAS | 0.0836 | 0.686 | –
CTSCGYKERTNN | 0.632 | 0.699 | –
RLIQTLPVQFLN | 0.0873 | 0.594 | –
ARWRVGLWRGAF | 0.603 | 0.682 | –
LKILRQKNNHQN | 0.425 | 0.687 | –
KKHKKKQKQKIN | 0.0427 | 0.593 | –
PSLAASFWYVVG | 0.655 | 0.708 | –
FSMRWTFRYSVN | 0.154 | 0.53 | –
LVVYLGCVACIN | 0.135 | 0.192 | –
KKHKKGQPQKIN | 0.0925 | 0.6 | –
PDKRNHLIKLCN | 0.22 | 0.583 | –
ARWRVGLWRGRS | 0.66 | 0.679 | –
LVVYLSCVAFIN | 0.0135 | 0.0206 | –
